Data from US20060259987A1 (UNIVERSITY OF UTAH RESEARCH FOUNDATION, published 2006).
Where a chain is given by its changes, count along the chain named. In names and notes the source's numbering stands.

How the values were obtained:
[1] = target: T1, human neutrophil elastase (human, UniProt P08246 30-247, limits assumed); test: cell-based or functional assay
T1 sequence (looked up): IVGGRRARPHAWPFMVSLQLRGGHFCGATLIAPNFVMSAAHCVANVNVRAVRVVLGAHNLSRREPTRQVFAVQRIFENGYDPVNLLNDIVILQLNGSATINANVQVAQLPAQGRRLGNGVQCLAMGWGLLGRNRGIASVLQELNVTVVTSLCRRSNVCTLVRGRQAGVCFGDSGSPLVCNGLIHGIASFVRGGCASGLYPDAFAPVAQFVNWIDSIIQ

human factor Xa [2] = target: T2, human factor Xa (human, UniProt P00742 41-179; P00742 235-488, limits assumed); test: residual enzyme activity against time, pseudo-first-order, with heparin
T2 construct: the active enzyme is a two-chain form of it; also called fXa
T2 sequence (P00742 41-179 limits assumed, chain 1 of 2): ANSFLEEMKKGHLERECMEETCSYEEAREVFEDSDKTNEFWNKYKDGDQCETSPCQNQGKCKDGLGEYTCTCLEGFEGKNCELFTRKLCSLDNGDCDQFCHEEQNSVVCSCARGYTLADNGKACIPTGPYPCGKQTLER
T2 sequence (P00742 235-488 limits assumed, chain 2 of 2): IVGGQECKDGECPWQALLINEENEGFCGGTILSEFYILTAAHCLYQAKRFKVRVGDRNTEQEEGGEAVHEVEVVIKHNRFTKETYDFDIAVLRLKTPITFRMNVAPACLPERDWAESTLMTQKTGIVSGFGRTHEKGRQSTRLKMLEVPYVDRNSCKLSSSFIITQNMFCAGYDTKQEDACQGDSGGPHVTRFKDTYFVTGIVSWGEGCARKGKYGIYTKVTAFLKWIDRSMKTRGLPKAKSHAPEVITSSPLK
Experimental: Polybrene was added with the chromogenic substrate to quench the heparin dependent reaction. The observed pseudo-first-order rate constants were calculated for each heparin (1 nM-5 nM) concentration from the slope of the log of residual proteinase activity vs. time. This was plotted against the heparin concentration to calculate the second-order rate constant for the inhibition by the heparin-ATIII complex, (Kₕₑₚ) from the equation Kobs=Kₕₑₚ[H]ₒ([AT]ₒ/[AT]ₒ+Kd)+Kuncat[AT]ₒ

human thrombin = human thrombin (human, UniProt P00734 328-622); test: residual enzyme activity against time, pseudo-first-order, progressive (no heparin)
human factor Xa [3] = target: T2, human factor Xa; test: as above
thrombin [4] = target: T3, thrombin (human, UniProt P00734 328-622); test: cell-based or functional assay
factor Xa [5] = target: T4, factor Xa (human, UniProt P00742 41-179; P00742 235-488, limits assumed); test: cell-based or functional assay
T4 sequence (P00742 41-179 limits assumed, form in doubt, chain 1 of 2): as the sequence (P00742 41-179 limits assumed, chain 1 of 2) above
T4 sequence (P00742 235-488 limits assumed, form in doubt, chain 2 of 2): as the sequence (P00742 235-488 limits assumed, chain 2 of 2) above

factor Xa [6] = target: T4, factor Xa; test: heparin cofactor assay, HCA expt #3; ATIII titrated on 10 nM fXa + 50 ug/ml UFH, chromogenic readout
Experimental: (§1) After 3 minutes, the reactions were quenched with polybrene and chromogenic substrate S2238 (thrombin) or S2765 (fXa), and the initial rate of chromophore production (405 nm) recorded to obtain a measurement residual, uninhibited thrombin or factor Xa. IC50s were determined from plots of ATIII concentration vs. percent residual target enzyme activity.

thrombin [7] = target: T3, thrombin; test: heparin cofactor assay, HCA expt #3; ATIII titrated on 10 nM thrombin + 50 ug/ml UFH, chromogenic readout
Experimental: as §1

factor Xa [8] = target: T4, factor Xa; test: heparin cofactor assay, HCA expt #4; ATIII titrated on 10 nM fXa + 50 ug/ml UFH, chromogenic readout
Experimental: as §1

thrombin [9] = target: T3, thrombin; test: heparin cofactor assay, HCA expt #4; ATIII titrated on 10 nM thrombin + 50 ug/ml UFH, chromogenic readout
Experimental: as §1

B1: LEAI.482 (other)
chain: SPVDICTAKPRDIPMNPMCIYRSPEKKATEDEGSEQKIPEATNRRVWELSKANSRFATTFYQHLADSKNDNDNIFLSPLSISTAFAMTKLGACNDTLQQLMEVFKFDTISEKTSDQIHFFFAKLNCRLYRKANKASKLVSANRLFGDKSLTFNETYQDISELVYGAKLQPLDFKENAEQSRAAINKWVSNKTEGRITDVIPSEAINELTVLVLVNTIYFKGLWKSKFSPENTRKELFYKADGESCSASMMYQEGKFRYRRVAEGTQVLELPFKGDDITMVLILPKPEKSLAKVEKELTPEVLQEWLDELEEMMLVVHMPRFRIEDGFSLKEQLQDMGLVDLFSPEKSKLPGIVAEGRDDLYVSDAFHKAFLEVNEEGSEAAASTALEAHGRSLNPNRVTFKANRPFLVFIREVPLNTIIFMGRVANPCVK
notes: Recombinant human ATIII variant made in Drosophila S2 cells on the S137A background
Question: How did the “halflife, min (HNE/hep)” value [1] turn out when B1 was run?
Answer: 25.3 min

Question: What about the “kapp (apparent second-order inhibition rate constant)” value (human factor Xa [2]) of the same binder?
Answer: 831000 M⁻¹ s⁻¹

Question: And the “kapp (apparent second-order inhibition rate constant)” value (human thrombin)?
Answer: 2920 M⁻¹ s⁻¹

Question: And the “kapp (apparent second-order inhibition rate constant)” value (human factor Xa [3])?
Answer: 5360 M⁻¹ s⁻¹

B2: LEAI.480 (other)
chain: B1 chain with H389Y
notes: as for B1
Question: Which “halflife, min (HNE/hep)” value [1] does the source give for B2 here?
Answer: 19.9 min

Question: What about the “kapp (apparent second-order inhibition rate constant)” value (human factor Xa [2]) of the same binder?
Answer: 489000 M⁻¹ s⁻¹

Question: What about the “kapp (apparent second-order inhibition rate constant)” value (human thrombin) of the same binder?
Answer: 7310 M⁻¹ s⁻¹

Question: What about the “kapp (apparent second-order inhibition rate constant)” value (human factor Xa [3]) of the same binder?
Answer: 24100 M⁻¹ s⁻¹

B3: 7EVEA.452 (other)
chain: B1 chain with A385E, L386V, A388L, H389A
modifications: N-linked glycans added by Drosophila S2 cells; not carried by the letters
notes: Made in Drosophila S2 cells (DES) on the S137A background; N-terminus printed as SPVDI---
Question: For B3, which “Rsd. IIa No add; CA expt #8; stg1 conc 200” value (thrombin [4]) is on record?
Answer: 12 % of activity without ATIII

Question: And the “rsd. IIa catG; CA expt #8; stg1 conc 200” value (thrombin [4])?
Answer: 14 % of activity without ATIII

Question: What about the “rsd. IIa hne; CA expt #8; stg1 conc 200” value (thrombin [4]) of the same binder?
Answer: 46 % of activity without ATIII

Question: What about the “rsd. Xa catG; CA expt #8; stg1 conc 200” value (factor Xa [5]) of the same binder?
Answer: 1 % of activity without ATIII

Question: What about the “rsd. Xa hne; CA expt #8; stg1 conc 200” value (factor Xa [5]) of the same binder?
Answer: 2 % of activity without ATIII

Question: What about the “rsd. Xa no add; CA expt #8; stg1 conc 200” value (factor Xa [5]) of the same binder?
Answer: 1 % of activity without ATIII

Question: And the IC50 (factor Xa [6])?
Answer: 24 nM

Question: What about the IC50 (thrombin [7]) of the same binder?
Answer: 750 nM

B4: 13C.438 (other)
chain: B1 chain with A385E, A388N, H389A
modifications: N-linked glycans added by Drosophila S2 cells; not carried by the letters
notes: as for B3
Question: With B4 as the binder, how does the IC50 (factor Xa [8]) read?
Answer: 22 nM

Question: What about the IC50 (thrombin [9]) of the same binder?
Answer: > 1000 nM

B5: 7EVEA.453 (other)
chain: B1 chain with A385E, L386V, A388F, H389A
modifications: N-linked glycans added by Drosophila S2 cells; not carried by the letters
notes: as for B3
Question: What does the source list for B5?
Answer: Rsd. IIa No add; CA expt #8; stg1 conc 200 (thrombin [4]): 14 % of activity without ATIII; rsd. IIa catG; CA expt #8; stg1 conc 200 (thrombin [4]): 62 % of activity without ATIII; rsd. IIa hne; CA expt #8; stg1 conc 200 (thrombin [4]): 35 % of activity without ATIII; rsd. Xa catG; CA expt #8; stg1 conc 200 (factor Xa [5]): 2 % of activity without ATIII; rsd. Xa hne; CA expt #8; stg1 conc 200 (factor Xa [5]): 1 % of activity without ATIII; rsd. Xa no add; CA expt #8; stg1 conc 200 (factor Xa [5]): 1 % of activity without ATIII; IC50 (factor Xa [6]): 19 nM; IC50 (thrombin [7]): 450 nM
